Biological target: Thrombospondin-1 (human, purified from platelets) (human, UniProt P07996 19-1170, 125I label (where used as 125I-TSP1))
Assay: radioligand binding

Chain of Thrombospondin-1 (human, purified from platelets) (P07996 19-1170): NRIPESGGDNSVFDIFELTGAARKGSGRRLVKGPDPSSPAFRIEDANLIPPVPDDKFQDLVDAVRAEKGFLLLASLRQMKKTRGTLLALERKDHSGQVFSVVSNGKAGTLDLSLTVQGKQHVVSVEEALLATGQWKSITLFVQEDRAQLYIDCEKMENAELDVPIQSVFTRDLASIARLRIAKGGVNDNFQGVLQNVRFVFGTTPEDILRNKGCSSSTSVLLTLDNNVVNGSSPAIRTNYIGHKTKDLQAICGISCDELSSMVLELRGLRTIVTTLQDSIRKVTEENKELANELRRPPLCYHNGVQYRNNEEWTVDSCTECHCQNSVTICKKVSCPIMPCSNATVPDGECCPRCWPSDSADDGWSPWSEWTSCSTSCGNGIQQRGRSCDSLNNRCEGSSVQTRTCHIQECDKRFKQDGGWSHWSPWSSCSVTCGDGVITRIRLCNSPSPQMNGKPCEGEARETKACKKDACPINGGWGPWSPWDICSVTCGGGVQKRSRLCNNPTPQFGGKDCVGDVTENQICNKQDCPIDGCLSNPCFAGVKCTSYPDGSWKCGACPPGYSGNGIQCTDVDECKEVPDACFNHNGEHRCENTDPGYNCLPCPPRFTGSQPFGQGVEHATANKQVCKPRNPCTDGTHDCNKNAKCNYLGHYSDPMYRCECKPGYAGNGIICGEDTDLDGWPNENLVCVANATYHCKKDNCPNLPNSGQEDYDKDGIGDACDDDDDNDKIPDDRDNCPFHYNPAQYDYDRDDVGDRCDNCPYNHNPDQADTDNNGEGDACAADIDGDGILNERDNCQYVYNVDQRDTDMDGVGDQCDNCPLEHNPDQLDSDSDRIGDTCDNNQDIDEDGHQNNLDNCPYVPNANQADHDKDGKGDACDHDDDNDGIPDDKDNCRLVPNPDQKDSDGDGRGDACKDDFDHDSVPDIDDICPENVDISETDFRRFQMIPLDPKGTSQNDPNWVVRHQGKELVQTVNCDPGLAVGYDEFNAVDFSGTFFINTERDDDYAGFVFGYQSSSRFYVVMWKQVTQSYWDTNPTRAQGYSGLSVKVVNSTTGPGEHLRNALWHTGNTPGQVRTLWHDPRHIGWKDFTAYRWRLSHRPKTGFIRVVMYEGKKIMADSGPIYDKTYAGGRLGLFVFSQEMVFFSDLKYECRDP

Binder | Kd
full-length recombinant human sFRP-1 (natural protein, UniProt Q8N474 32-314, looked up) SEYDYVSFQSDIGPYQSGRFYTKPPQCVDIPADLRLCHNVGYKKMVLPNLLEHETMAEVKQQASSWVPLLNKNCHAGTQVFLCSLFAPVCLDRPIYPCRWLCEAVRDSCEPVMQFFGFYWPEMLKCDKFPEGDVCIAMTPPNATEASKPQGTTVCPPCDNELKSEAIIEHLCASEFALRMKIKEVKKENGDKKIVPKKKKPLKLGPIKKKDLKKLVLYLKNGADCPCHQLDNLSHHFLIMGRKVKSQYLLTAIHKWDKKNKEFKNFMKKMKNHECPTFQSVFK | 48 nM
full-length recombinant human sFRP-2 (natural protein, UniProt Q96HF1 25-295, looked up) LFLFGQPDFSYKRSNCKPIPANLQLCHGIEYQNMRLPNLLGHETMKEVLEQAGAWIPLVMKQCHPDTKKFLCSLFAPVCLDDLDETIQPCHSLCVQVKDRCAPVMSAFGFPWPDMLECDRFPQDNDLCIPLASSDHLLPATEEAPKVCEACKNKNDDDNDIMETLCKNDFALKIKVKEITYINRDTKIILETKSKTIYKLNGVSERDLKKSVLWLKDSLQCTCEEMNDINAPYLVMGQKQGGELVITSVKRWQKGQREFKRISRSIRKLQC | 95 nM

Source: article PMC3085965 (Archives of biochemistry and biophysics, 2011)
